Measurements published in patent US20210096139A1.

Target: human CSF tau (human) (UniProt P10636)
Test: IP of tau from human CSF on antibody beads; recovery assessed by N-terminus tau ELISA (HJ8.5 capture, HJ8.7-biotin detection); value is the average over Tau12, HJ8.5 and HJ8.7

UniProt P10636, sequence (P10636 2-758 limits assumed): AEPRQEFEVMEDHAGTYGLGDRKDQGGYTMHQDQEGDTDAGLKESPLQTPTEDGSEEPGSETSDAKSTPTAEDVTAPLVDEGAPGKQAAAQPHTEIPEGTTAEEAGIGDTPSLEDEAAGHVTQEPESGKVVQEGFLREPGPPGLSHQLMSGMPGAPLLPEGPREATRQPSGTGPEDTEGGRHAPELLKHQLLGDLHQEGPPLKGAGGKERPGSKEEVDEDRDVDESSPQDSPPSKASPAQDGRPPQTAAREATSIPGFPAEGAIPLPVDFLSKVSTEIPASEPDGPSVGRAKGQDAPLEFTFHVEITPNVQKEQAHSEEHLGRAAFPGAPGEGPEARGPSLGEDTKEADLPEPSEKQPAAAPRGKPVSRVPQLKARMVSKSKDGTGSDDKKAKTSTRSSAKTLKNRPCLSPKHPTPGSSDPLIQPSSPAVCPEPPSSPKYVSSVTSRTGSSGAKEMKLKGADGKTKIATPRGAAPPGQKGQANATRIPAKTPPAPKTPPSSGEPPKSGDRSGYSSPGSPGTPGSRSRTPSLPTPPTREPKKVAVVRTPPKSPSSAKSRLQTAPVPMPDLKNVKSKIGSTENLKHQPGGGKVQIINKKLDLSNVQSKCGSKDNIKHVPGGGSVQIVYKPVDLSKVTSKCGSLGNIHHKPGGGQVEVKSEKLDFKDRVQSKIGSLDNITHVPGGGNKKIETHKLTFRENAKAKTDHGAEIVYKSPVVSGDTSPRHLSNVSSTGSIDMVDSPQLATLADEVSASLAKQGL

immunoprecipitation efficiency | Substance
99.3% | HJ8.7 (antibody)
99.3% | Tau12 (antibody)
